Test results: patent publication US20100099601A1

Biological target: Insulin-like Growth Factor Receptor (IGFR; Type I IGF receptor) (UniProt P08069)
Test: displacement of 125I-IGF-1 from IGFR

Kd: 3.14 nM | Relative Affinity (to IGF-1): 0.015 fold | fold affinity relative to human insulin: 2 to 3 fold
Substance: Lantus (insulin analogue with two additional Arg residues at the carboxy-terminal end of the B-chain) (ligand)
